From the DeepSol protein solubility set

test: soluble on expression in E. coli; label from the status in PepcDB or PDB records

Sequence | soluble on expression in E. coli
MESNNGIILRVAEANSTDPGMSRVRLDESSRRLLDAEIGDVVEIEKVRKTVGRVYRARPEDENKGIVRIDSVMRNNCGASIGDKVKVRKVRTEIAKKVTLAPIIRKDQRLKFGEGIEEYVQRALIRRPMLEQDNISVPGLTLAGQTGLLFKVVKTLPSKVPVEIGEETKIEIREEPASEVLEEGG | soluble
MGSSHHHHHHSSGLVPRGSHMSSTMSADQSNRARPVIRIKENPEDFTVEEVADIPKSDNGKYTIIKAEIIDWDTNRIVEEIASALRISRKRISYAGTKDKRARKIQYFCINAPVDVSVLAFKGFRIIDRFRSDHYLRLGDLTANHFRIRFQGASDDYIEQRYEKMMECGGFPNYFGQQRFGSRRRNTHDVGRLIVTGRYEDAVRLYLYDERYDIEDYRREFIETLDYNRALEKFPRTLRFERSIIGYYAQHHTFKGAFDALPKNLSIMFVHAYQSYLFNRMLSLRIEKYGLNRAIPGDTAFPVDRYFNPDKSRPVEVNEVNVDTINQLIERDRLRVALPIIGSEVGPDQSDFGEIEKKILEEEHVDRSMFRNSEYPHLSSTGDRRIVSAKPVDFSVSNSVMDFTLGRGIYATTLISTFGDLVDFDAESDGF | soluble
MEIGPDGKPCRACVSVEDMMKKGREMAEKIKKKESETTPSTSTGAKLHGCPVDKDELGRSTWNLLHTMSVYYPEKPTDEDKDRARSFMSILGKTYPCDFCAKDLRKDLKESPPKVESREAFALWMCQLHNKVNEKTGKPKFECRDVMQRWRDGWKDGSCDY | soluble
MGSDKIHHHHHHMGVSHGYVIWPLGSVHLISAIHPDILEKLMTKTLLLYSTVDGQTLAICQRMQTVMTQAGEQVELLSLNDCSGDALTQVDRVLIGASIRYGKHRPELLSFTNTHQDLLNSKMNGFFTVNVVARKPEKNTPATNPYMIKFLQLSAWQPKVLGVFAGKIAYPKYGPFDRFMIRFIMWMTKGPTDTKGTFEFTDWNKVDEFAGSFVKQ | not soluble
GPGSMKQIAHYFRIKTAKHAVLEAGDNIRELCSVLSFPLIIKHVSGYSSVGMDKSCKVYDMDSLHSRVTRFIEQYQIALVEEFVVGDEATILVCADSTQPDGIRVFPPVMVQFPEGEDFKHFHLKWETYEGMEWRLMPEDDPALSQVLSTARTSFMHMMGGVGYGRVDVRIDRSTHDVVFLEINPNCGVMYPPGQEGSADWILRLTPGFNQREFTLLQIKEALRRNERMQPLFRCVYNPAQGYRMCATRDISAGSPIFEAEGQSVRLYTKPHVKATRGKEEYDQFAQKAWPLGGDGHYYALWDNEPTNWRTFSHSCVPNMNFGPNRSLNLYATRDIARGEELTMDYRLFRDETTPPFQCCCGSECCEGWIAMNGGKLTKEENGNNY | not soluble
MEKGSVMSLFIYMSQSMFNFDALTPDFMWYALESIGIRAESGFLPLNSYENRVYQFTDEERRRYVVKFYRPERWSNEQIQEEHDFTLELIDSEIPVAPPVRINGNTLHHYQGYGFALFESVGGRQFEVDNLEQLEGVGRFLGRIHKVGSRQAFQHRPTIGLQEYLYQPREILQNANMIPMHLENSFFNDLDMLIKAIENHWQGSFATIRLHGDCHPGNILWRDGPMFVDLDDSRNGPAVQDLWMLLNGERQDKLMQLDIILEAYQEFCDFNAAELKLIEPLRGLRMVHYMAWLAKRWHDPAFPLAFPWFNEPKYWEGQVLAFKEQIASLEEAPLSLMPQWLEHHHHHH | not soluble
ASHMQRIAVTAEGPGLDGLVDPRFGRAAGFVVVDAATMAAEYVDNGASQTLSHGAGINAAQVLAKSGAGVLLTGYVGPKAFQALQAAGIKVGQDLEGLTVRQAVQRFLDGQVPMAAGPNK | soluble
MGSDKIHHHHHHMEIAVLGGGNGSTAAAVDLTAQGHNIRFWRRNASAQAELKARGNVITLKDFEGARPIRITMVTDDIGEAIRGAELIVCPTPATAQSDIAAAMAPHLADGQVVFLPPGSFGSWIMADIVRKAGNHADVSWAETGTLPYLTRLHGADTVAITTRATRLPTGVYPLRNAEHAHSVLARAYPAVEPAGDALSGALMNAGPIIHPPLITMNAGPIEHFDHWDIHNEGTQPAIRRVTTRLDAERMAVREALGYGAPHFPLADHYETSDWMYGNLAHDKLVDSGDWREHLVLTEHRYMREDVAVGLALLVSVADWAGVPAPTATGLLALGSAICDDDFRQSGRTLENLGLADMDRAALQTMLRDGA | not soluble
MGSDKIHHHHHHMVKLKDGFTGERALVLPRIIVDKMEEDPLTSMLHITDIGYYPKAKHHFRERKEPINQYVFIYCIDGAGSYRIGDQEYTVSANQYFILPAGVPHSYASNKSTPWTIYWIHFKGILAPFYAKDANRPMDIQSEQHSRISTRINLFEEIFNTLKNGYSNENLRYAFSMFHFYLGTLRYVQQYRNAGTNEAEDEGIVNVAIHYMKENMEKHLSLEEISTQIGYSPSHFSMLFKKQTGHSPLTYFNLLKMQQACLLLDTTDMKINQICYKIGIEDTYYFSRLFSKIMGMSPREYRKSKKG | not soluble
MKISPSRQVKGEIEIIPVSGFRGIGKFIDVPWRLYADDPLWVPPLRLERRLHLSRFNPYFRHAQWQGWIACRDNQPVGRISAQIDELYQQRYGTDTGHFGMLESIQDEAVFSRLIQVAESWLVERGVRQISGPFNFSINQECGLLVQGFDTPPVFMMPYSPEWYTSLLEQNGYQPCKDLLAYWLVTDFDPPPAMQAIDRKYRHQIRIRPLQRNRFNEEIETMRDIFNDAWSDNWGFVPFTQEEFAELGSSLRWLVPDEFIQIAEIDGRPVAFMAVLPNLNEVLPALNGKLLPLGWLHLINKLKSASITTGRVPLMGVRKQFHHTLVGIALAFKVIDAPRKMVKSRGIGHVELSWILEDNQSMRAILEKIGGREYKRYRIYDKTLA | not soluble
MGSDKIHHHHHHMMSMKIFETTAPHPEASLLTAFSKNALDRFAEKRTEECVAEALKVDGTHIFAFSGNRLVLKHDEQVIDPLFSAYELAELQPDFDNAVLLGYRETGEPRIAVPVAVAEDQLASHYKLADARTLYRDHLLDEELLSEVAQAVSLTHWNADNRFCGRCGGTMEQRIGGYKRICASCSHTIFPRTDPVVIMMTIDIERDLCLLGRGAHFASGMYSCLAGFVEPGETIEQAVRRETHEESGVEIGRVRYHASQPWPMPHTLMIGCYAEALSSDIARDEIELEDCRWFTREEVAKMLEAPAGEGFSAPPIGAIAHRLMRDWVEWPE | not soluble
MRSSKSPFKRKSHSRETSHDENTSFFHKRTISGSSAHHSRNVSQGAVPSSAPPVSGGNYSHKRNVSRASNSSQTSNFLAEQYERDRKAIINCCFSRPDHKTGEPPNNYITHVRIIEDSKFPSSRPPPDSKLENKKKRLLILSAKPNNAKLIQIHKARENSDGSFQIGRTWQLTELVRVEKDLEISEGFILTMSKKYYWETNSAKERTVFIKSLITLYIQTFEGHVPELVNWDLSLFYLDERSYQRAVITNRPGSVSPIKSPTSNFTTNTTQSVGSVPFSAPTERTRRSETESVNPVSTPASVEYHAGMKSLNKAPYSSNS | soluble
MKAEIISVGTEILLGDIVNTNSQFLAKELASLGIEVYHQSTVGDNKQRLLECFDESLKRSDFVITTGGLGPTGDDMTKETAAEYFGQKLELHKPSLEVLESFFVKTGKKMAENNMKQVYFPKDAIVLKNNNGTAPGAILKKDGKFIIVLPGPPREMKAMFNESVKPYLQQFTNEMLVSKTLRLYGIGESNLELEILDIINEQTNPTVALYAKELEVTIRITAKAENEREAFKLIKPVEEKIKSRVGKYVYTEGDISISEGETALEDAVSKLLVEKNLTIAVAESCTGGLVSSSLINYPGISSVFLEGCVTYSNDSKMKRLGVKRETLEEFGAVSEQTAIEMAEGVAKGLKANIGISTTGVAGPGGGTKEKPVGLVYTAIYINGKTIVKKNIFNGDRRKIRLRATRDLLNELRIQLEKL | not soluble
MSLEVKLNENERIDDLQCKGLKIIQKKAGFCFGLDAVLLANFADIKKGDTVIDLGTGTGIIAILIAGKTEAKSIIGLEIQEEMAEMAQRSVKLNNLEDRVKIVCGDIKNSVEMFGASKFDVVVTNPPYMNQGGGLLNISDTKAISRHEIKCTLEDVIKASSKLLVPGGQFAMVHRPDRLVDIIWLMRKYSIEPKYLQFVHPYPRKKANLILIKGARQGRVQLKMLEPLYVYDENGNYSKEIDNIYGREVRNEGHHHHHH | soluble
KVKELTILYRGSTAPTLASGLTPFHKDSLDVWTDWGVNDIPTAIQITNGGGSTVTPQLKTSAETLKQTMKLYPNAQIYVYGHSLGSMNAQYAIADLDKKDIKRISGGFFYQGPNIYSNLTPKQQDTVKAINALDRLFNFIDRKDYVAIGYGTGDPTIGHLIEVESKKAGLV | not soluble
MHHHHHHMGLELYLDLLSQPCRAVYIFAKKNDIPFELRIVDLIKGQHLSDAFAQVNPLKKVPALKDGDFTLTESVAILLYLTRKYKVPDYWYPQDLQARARVDEYLAWQHTTLRRSCLRALWHKVMFPVFLGEPVSPQTLAATLAELDVTLQLLEDKFLQNKAFLTGPHISLADLVAITELMHPVGAGCQVFEGRPKLATWRQRVEAAVGEDLFQEAHEVILKAKDFPPADPTIKQKLMPWVLAMIR | soluble
MGNCLKSPTSDDISLLHESQSDRASFGEGTEPDQEPPPPYQEQVPVPVYHPTPSQTRLATQLTEEEQIRIAQRIGLIQHLPKGVYDPGRDGSEKKIRECVICMMDFVYGDPIRFLPCMHIYHLDCIDDWLMRSFTCPSCMEPVDAALLSSYETN | soluble
MAAQVLSGHEAAEAVYEEIRARLRSLSFTPSLRVIRLGEDPASVAYVRLKDKRARALGYRSQVEVYPEDLPEEALLERIAALNADEEVDGILVQLPLPPHIRTQRVLEAIHPLKDVDGFHPLNVGRLWSGGKGLFPCTPLGVVRLLKHYGVDLRGKEVVVVGRSNIVGKPLAGLLLREDATVTLAHSKTQDLPEVTRRAQVLVVAVGRPHLVRKEWVREGAIVVDVGVNRVEGRLLGDVHPEVAEVAFALTPVPGGVGPMTVAMLMGNTLEAALLRRHGASG | soluble
MAEKSLITQETVGMTDEGLPPVLQGRNNSTQQVSFLRARVKCTDQGLITKIGVLPRGAFIKSIKIYAMTDFEDVTATFGKEPHGNDYGDVGLTQSTDSNVYIPMEERDVPLEVENTIYMTRDKKSSKGDVEVIVEFYTNR | not soluble
MDLSQLTPRRPYLLRAFYEWLLDNQLTPHLVVDVTLPGVQVPMEYARDGQIVLNIAPRAVGNLELANDEVRFNARFGGIPRQVSVPLAAVLAIYARENGAGTMFEPEAAYDEDTSIMN | soluble
MSLARKKRNPDAEKLAESILNAYQPESVDDMQDALKDVFGPLFEKMLQGELNNHLGYDAHSKEPKEHDNRRNGYGTKTLKTSFGEVAIDVPRDREASFEPELIPKRKRDVSDIEGKVLSMYARGMSQRDIAATVEAIYGFDISHEMISDITDAVLPELEEWQARPLAKCYAFLFVDCMYVTLRENYEAKEYAVYTILGYDLKGNKEILGLWLNQTESKNRWMQVFDELKARGVEDVFFISMDGVSGLEEGAKAIFPSVIVQRCIVHLVRNALRYIPSKDYKEVCRDMKKFYGASSLNAAHAAFGSFQNRWSHYSGAVDVWKRNFAHVEQLFDYGSAIRKIMYTTNAVESVHSSFRKVTKKGAFSNENALLKLLYLRTKELHAKWSGGRIQNWAMVLKQLMINETFSSRMKSMRFTFRNNGRFIQLCVRSKEGHHHHHH | soluble
MGHHHHHHSHAFDLTVPTTNQFLLQYLRRQGVCVRTENLAKYVAELSLLEADPFLKYLPSLIAAAAFCLANYTVNKHFWPETLAAFTGYSLSEIVPCLSELHKAYLDIPHRPQQAIREKYKASKYLCVSLMEPPAVLLLQ | not soluble
